Measurements from patent US20200010542A1 (MorphoSys, published 2020).

T1: human IL-17C (human, UniProt Q9P0M4 19-197)
T1 sequence: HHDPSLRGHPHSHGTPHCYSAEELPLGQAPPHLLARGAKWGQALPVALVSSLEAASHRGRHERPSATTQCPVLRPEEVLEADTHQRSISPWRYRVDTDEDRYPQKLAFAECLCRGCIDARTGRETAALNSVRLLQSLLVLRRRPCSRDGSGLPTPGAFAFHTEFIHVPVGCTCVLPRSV

T2: mouse IL-17C (mouse, UniProt Q8K4C5 17-194)
T2 construct: R&D Systems #2306-ml-025 in the reporter assay; biotinylated in the screens; also called mIL-17C; mGT454
T2 sequence: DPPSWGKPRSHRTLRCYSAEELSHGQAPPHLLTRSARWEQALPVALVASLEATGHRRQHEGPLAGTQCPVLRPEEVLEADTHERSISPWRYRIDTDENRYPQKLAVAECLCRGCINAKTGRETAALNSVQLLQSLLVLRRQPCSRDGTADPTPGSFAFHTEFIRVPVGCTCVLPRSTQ

T3: cynomolgus IL-17C (cynomolgus monkey, UniProt Q9P0M4 19-197 (human entry), limits assumed)
T3 chain: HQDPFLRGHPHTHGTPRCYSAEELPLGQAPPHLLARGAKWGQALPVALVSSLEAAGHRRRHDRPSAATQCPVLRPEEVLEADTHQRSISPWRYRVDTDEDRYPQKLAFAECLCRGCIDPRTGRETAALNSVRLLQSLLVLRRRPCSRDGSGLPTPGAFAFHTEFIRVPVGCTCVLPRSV


Key:
human IL-17C [1] = target: T1, human IL-17C; assay: cell-based or functional assay
mouse IL-17C [2] = target: T2, mouse IL-17C; assay: SET (ECL based), IgG, bivalent affinity, mGT454
Description: (§1) Additionally monovalent Fab and bivalent IgG affinity was determined by SET. Therefore purified Fabs and IgGs were titrated on human or mouse IL-17C for EC₅₀ determination. The results confirmed the proposed avidity effect exerted by IgG antibodies forming mainly class III complexes.
(§2) Solution equilibrium titration (SET) was basically performed as described in the literature (Friquet et al., (1985) J. Immunol. Meth. 77: 305-19). In order to improve the sensitivity and accuracy of the SET method, it was transferred from classical ELISA to ECL based technology (Haenel et al. (2005) Anal Biochem. 339.1: 182-84).

human IL-17C [3] = target: T1, human IL-17C; assay: SET (ECL based), IgG, bivalent affinity, hGT454
Description: as §1, §2

cynomolgus IL-17C = target: T3, cynomolgus IL-17C; assay: cell-based or functional assay
human IL-17C [4] = target: T1, human IL-17C; assay: cell-based or functional assay; remark: listed apart in the source
mouse IL-17C [5] = target: T2, mouse IL-17C; assay: cell-based or functional assay
human IL-17C [6] = target: T1, human IL-17C; assay: MSD receptor binding inhibition: IgG with biotinylated IL-17C on coated IL17RE/Fc (head: hIL-17C-hIL17RE; text: mouse IL17RE/Fc)
Description: Purified IL-17C specific IgGs were tested in mIL-17 RE interaction assay. Therefore MA6000 384 well plates (Meso Scale Discovery, MSD) were coated with 30 μl mouse IL17RE/Fc chimeric protein at 75 ng/ml in PBS at 4° C. overnight. The next day a serial antibody dilution (concentrations from 0.001 to 100 nM) were pre-incubated for 30 min at RT with an equal volume of biotinylated IL-17C. After blocking of plates for 1 h with 2.5% BSA in PBST, previously formed antibody-ligand complexes were added for 1 h to coated IL17RE/Fc and receptor binding was detected via Streptavidin-ECL using MSD Sector Imager.

human IL-17C [7] = target: T1, human IL-17C; assay: SET (ECL based), Fab, monovalent affinity, hGT454
Description: as §1, §2

mouse IL-17C [8] = target: T2, mouse IL-17C; assay: SET (ECL based), Fab, monovalent affinity, mGT454
Description: as §1, §2

Row | Binder | NHEK assay IC50 [pM] (expression of DEFB4A) (human IL-17C [1]) | EC50 (mouse IL-17C [2]) | EC50 (human IL-17C [3]) | NF-kB reporter gene assay (IgG) IC50 [pM] (cynomolgus IL-17C) | NF-kB reporter gene assay (IgG) IC50 [pM] (human IL-17C [4]) | NF-kB reporter gene assay (IgG) IC50 [pM] (mouse IL-17C [5]) | IC50 (human IL-17C [6]) | EC50 (human IL-17C [7]) | EC50 (mouse IL-17C [8])
1 | mab_1 (IgG1) (antibody, V domains shown, Human IgG1 from the Ylanthia library, VH3-23 / Vlambda3-1, made in HKB11 cells) VH: not shown VL: SYELTQPPSVSVSPGQTASITCSGDKLGDKYAYWYQQKPGQSPVLVIYQDSKRPSGIPERFSGSNSGNTATLTISGTQAEDEADYYCQAWTFPLLTWVFGGGTKLTVLG | 415 pM | 0.15 nM | 0.017 nM | 24 pM | 29 pM | 46 pM | 0.04 nM |  | 
2 | mab_8 (IgG1) (antibody, V domains shown, Human IgG1 from the Ylanthia library, VH3-23 / Vlambda3-1, made in HKB11 cells) VH: not shown VL: SYELTQPPSVSVSPGQTASITCSGDKLGDKYAYWYQQKPGQSPVLVIYQDSKRPSGIPERFSGSNSGNTATLTISGTQAEDEADYYCQVFTFPLVTTVFGGGTKLTVLG | 93 pM | 3.35 nM | 0.022 nM | 39 pM | 42 pM | 1770 pM | 0.13 nM |  | 
3 | mab_1 Fab (Fab, V domains shown, His-tagged Fab made in E. coli; also called mab_1 (Fab format)) VH: not shown VL: SYELTQPPSVSVSPGQTASITCSGDKLGDKYAYWYQQKPGQSPVLVIYQDSKRPSGIPERFSGSNSGNTATLTISGTQAEDEADYYCQAWTFPLLTWVFGGGTKLTVLG |  |  |  |  |  |  |  | 4.8 nM | 72 nM
4 | mab_8 Fab (Fab, V domains shown, His-tagged Fab made in E. coli; also called mab_8 (Fab format)) VH: not shown VL: SYELTQPPSVSVSPGQTASITCSGDKLGDKYAYWYQQKPGQSPVLVIYQDSKRPSGIPERFSGSNSGNTATLTISGTQAEDEADYYCQVFTFPLVTTVFGGGTKLTVLG |  |  |  |  |  |  |  | 2.7 nM | 490 nM
